According to paper PMC5454113:

What was measured:
activated factor X (FXa) [1] = biological target: activated factor X (FXa) (UniProt P00742); test: enzyme inhibition kinetics (chromogenic substrate); as a1, with 100 nM protein S, no FV
activated factor X (FXa) [2] = biological target: activated factor X (FXa) (UniProt P00742); test: enzyme inhibition kinetics (chromogenic substrate); FXa 0.3 nM, TFPI 0–16 nM, S-2765 200 uM, 25 uM phospholipids (DOPC/DOPS/DOPE 60:20:20), 5 mM CaCl2, 25 °C, 60 min; no protein S, no FV; Ki = encounter complex, Ki* = overall dissociation constant
activated factor X (FXa) [3] = biological target: activated factor X (FXa) (UniProt P00742); test: enzyme inhibition kinetics (chromogenic substrate); as a1, with 30 nM recombinant FV and 100 nM protein S
activated factor X (FXa) [4] = biological target: activated factor X (FXa) (UniProt P00742); test: enzyme inhibition kinetics (chromogenic substrate); as a1, with 30 nM recombinant FV, no protein S

Sequence of UniProt P00742 (P00742 41-179, chain 1 of 2): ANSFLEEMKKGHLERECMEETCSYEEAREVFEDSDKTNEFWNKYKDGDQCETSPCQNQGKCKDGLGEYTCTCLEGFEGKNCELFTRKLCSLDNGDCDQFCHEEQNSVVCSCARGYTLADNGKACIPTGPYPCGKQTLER
Sequence of UniProt P00742 (P00742 235-488, chain 2 of 2): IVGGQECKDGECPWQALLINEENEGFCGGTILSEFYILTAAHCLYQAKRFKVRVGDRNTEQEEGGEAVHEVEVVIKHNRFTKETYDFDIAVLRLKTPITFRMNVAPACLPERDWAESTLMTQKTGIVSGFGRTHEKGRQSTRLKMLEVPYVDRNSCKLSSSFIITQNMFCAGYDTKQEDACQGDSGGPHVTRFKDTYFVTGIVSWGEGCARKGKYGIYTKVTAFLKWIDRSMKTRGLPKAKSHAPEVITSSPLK

Substance: TFPI ΔCT (aa 1–249) (domain or fragment)
- Ki (activated factor X (FXa) [1]): 47 pM
- Ki of the encounter complex (first step) (activated factor X (FXa) [1]): 4570 pM
- Ki (activated factor X (FXa) [2]): 50 pM
- Ki of the encounter complex (first step) (activated factor X (FXa) [2]): 5690 pM
- Ki (activated factor X (FXa) [3]): 28 pM
- Ki of the encounter complex (first step) (activated factor X (FXa) [3]): 1610 pM
- Ki (activated factor X (FXa) [4]): 310 pM
- Ki of the encounter complex (first step) (activated factor X (FXa) [4]): 7410 pM
